B1: ZNF232 (parent)
chain: GKAYGWCSELIRHRRVHARKEPSH
B2: GLTSCR2 (parent)
chain: FQRRNMIEPRERAKFKRKYKVKLV

Variants of: B1
Assay: protein stability index of a GFP-peptide fusion (GPS, HEK-293T) (PSI 1-6); higher = more stable
Conditions: c terminus: a fixed tail appended
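Also: lentivirally expressed fusions sorted by FACS into six bins by GFP to DsRed ratio, PSI derived from sequencing read proportions per bin multiplied by bin number.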

Protein stability index: each site, then its substitutions
K20: L 1.93; M 2.18; N 2.58; P 2.62; Q 2.8; R 2.12; S 2.86; T 3.28; V 3.22; W 1.82; Y 1.86
E21: A 2.92; C 2.36; D 2.75; F 2.04; G 2.58; H 2.63; I 2.46; K 3.15; L 1.91; M 2.37; N 3.24; P 2.79; Q 2.69; R 3.3; S 3.3; T 2.69; V 3.1; W 2.19; Y 2.81
P22: A 3.39; C 2.52; D 3.14; E 4.22; F 1.8; G 2.71; H 3.42; I 2.27; K 2.92; L 2.93; M 2.3; N 2.98; Q 3.38; R 3.17; S 3.21; T 3.02; V 2.82; W 1.79; Y 3.58
S23: A 2.61; C 2.58; D 3.66; E 3.92; F 2.43; G 3.32; H 3.16; I 2.48; K 3.49; L 2.54; M 2.12; N 3.05; P 2.95; Q 2.98; R 2.93; T 3.03; V 2.82; W 1.76; Y 2.19
H24: A 3.08; C 2.78; D 3.61; E 2.44; F 2.65; G 3.7; I 2.49; K 3.55; L 2.68; M 2.5; N 3.65; P 3.08; Q 2.25; R 3.15; S 3.07; T 2.97; V 3.54; W 2.03; Y 2.46

Variants of: B2
Assay: as above
Conditions: c terminus: a fixed tail appended

Protein stability index, by site and new letter:
F1: A 3.04; C 2.69; D 2.83; E 2.57; H 2.69; I 3.03; K 2.96; L 3.01; M 2.08; N 2.59; P 3.05; Q 2.99; R 3.03; S 2.77; T 3.11; V 2.81; W 2.41; Y 2.51
Q2: A 1.99; C 1.99; D 2.35; E 2.3; F 1.58; G 2.3; H 2.21; I 2.08; K 2.21; L 1.94; M 2.7; N 2.42; P 2.06; R 2.62; S 2.43; T 2.65; V 1.57; W 1.84; Y 2.08
R3: A 2.8; C 2.38; D 2.71; E 2.69; F 1.75; G 2.17; H 1.93; I 2.17; K 2.6; L 2.37; M 2.68; N 2.66; P 1.96; Q 2.26; S 1.65; T 1.79; V 2.04; W 1.58; Y 1.6
R4: A 2.21; C 2.02; D 1.98; E 2; G 1.9; H 2.13; I 2.14; K 1.95; L 2.51; M 1.86; N 2.7; P 1.73; Q 2.85; S 2.35; T 2.6; V 3.02; W 1.96; Y 2.42
N5: A 2.59; C 2.62; D 2.23; E 3.05; F 1.59; G 2.57; H 1.88; I 2.36; K 2.42; L 2.83; M 2.5; P 2.36; Q 2.36; R 2.56; S 2.02; T 1.88; V 2.29; W 2.1; Y 2.33
M6: A 2.56; C 1.74; D 2.31; E 3.08; F 1.93; G 2.57; H 2.33; I 2.25; K 2.52; L 1.63; N 2.27; P 2.25; Q 2.74; R 2.92; S 3.25; T 3.15; V 2.14; W 3.61; Y 2.48
I7: A 2.15; C 2.78; D 3.27; E 2.22; F 2.2; G 2.35; H 1.87; K 2.1; L 1.99; M 2.67; N 2.64; P 2.25; Q 2.24; R 2.46; S 3.04; T 2.31; V 2.24; W 1.9; Y 1.92
E8: A 2.7; C 3.15; D 2.13; F 1.82; G 2.18; H 2.33; I 2.02; K 2.35; L 2.27; M 2.34; N 2.3; P 2.42; Q 1.64; R 1.83; S 2.04; T 2.05; V 2.25; W 1.91; Y 2.23
P9: A 3.52; C 2.14; D 2.15; F 2.4; G 1.71; H 2.47; I 2.4; K 2.52; L 1.78; M 2.06; N 2.34; Q 2.38; R 2.5; S 2.33; T 1.99; V 2.19; W 2.01; Y 1.67
R10: A 2.56; C 3.03; D 2.58; E 1.98; F 2; G 2.12; H 1.95; I 2.11; K 2.28; L 2.47; M 1.92; N 1.63; P 2.2; Q 1.53; S 2.13; T 1.99; V 1.58; W 1.76; Y 2.17
E11: A 2.54; C 2.36; D 2.53; F 2.37; G 2.4; H 2.18; I 1.6; K 2.41; L 2.63; M 2.37; N 2.6; P 2.66; Q 2.25; R 2.23; S 2.2; T 2.59; V 1.88; W 2.81; Y 1.91
R12: A 1.87; C 2; D 2.31; E 2.5; F 1.47; G 2.6; H 2.19; I 3.04; K 2.41; L 1.79; M 2.69; N 2.45; P 1.72; Q 2.43; S 1.84; T 2.15; V 1.5; Y 1.79
A13: C 1.98; D 1.7; E 2.56; F 1.64; G 2.08; H 2.74; I 2.13; K 2.37; L 2.29; M 2.08; N 3.21; P 2.02; Q 2.35; R 2.72; S 2.32; T 2.03; V 3.38; W 1.61; Y 2.68
K14: A 1.81; C 1.26; D 2.09; E 2.74

Source: the supplement of paper PMC10567573
